Test results taken from the nanobody polyreactivity screen of Harvey et al. (2022).

experiment: yeast display, Sf9 membrane polyspecificity reagent, FACS + sequencing; frameworks hold sequencing errors
How it was run: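 Using colony PCR, genes from sorted yeast display clones were amplified, then sequenced on MiSeq at 2 × 250 and filtered by CDR length. The clones had been stained with 10% biotinylated, detergent-solubilized Sf9 membrane reagent for 1 hour at 4 °C and sorted by FACS into low and high (top ~1%) gates on anti-HA and streptavidin fluorescence. Polyreactivity labels come from the gate of origin.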

Sequence	polyreactivity (PSR sort gate)
QVHLVESGGGLVQAGGSLRLSCAASGLTFNRYTMGWYRQAPGKESELVAAITSSGSTYYADSVKGRFTISRDNAKNTVNLQMNSLKPEDTAVDYCNTVYYDWFHYDYWGQGTQVTVSS	high polyreactivity
QVHLVESGGGLVQAGGSLRLSCAASGNSLRVYAMGWYRQAPGKERELVAAISYSSVNTYYADSVKGRFTISRDNAKNTVYLQMNSLKPEETAVYYCAADYFYYRRTQYDLRGYPYYYWGQGTQVTVSS	low polyreactivity
QVHLVESGGGLVQAGGSLRLSCAASGRIFATNAMGWYRPAPGKERELVATITRSAGRTYYADSVKGRFTISRDNAKNTVYLQMNSLKPEDTAVYYCAASYWDTEPGYREYDYWGQGTQVTVSS	low polyreactivity
QVHLVESGGGLVQAGGSLRLSCAASGRIFGRNAMGWYRQAPGKERELVAAISKRGGSTSYADSVKGRFTISRDNAKNTVYLQMNSLKPEDTAVYYCATSAPLVTSSGYGYWGHGTQVTVSS	high polyreactivity
QVHLVESGGGLVQAGGSLRLSCAASGRIFGVYAMGWYRQAPGKERELVAVISWSGTSTYYADSVKGRFTISRDYAKNTVYLQMNSLKPEDTAVYYCAADYIGITDYYAIVVYLGYDSWGQGTQVTVSS	high polyreactivity
QVHLVESGGGLVQAGGSLRLSCAASGRIFNPNAMGWYRQAPGKERELVAAITSGDSTNYADSVKGRFTISRDNAKNTVYLQMNSLKPEDTAVYYCAADWTYPYNSWGQGTQVTVSS	low polyreactivity
QVHLVESGGGLVQAGGSLRLSCAASGRIFNWYVMGWYRQAPGKERELVAAITSGGITKYADSVKGRFTISRDNAKNTVYLQMNSLKPEDTAVYYCAAYYRRYDYDYWGQGSQVTVSS	high polyreactivity
QVHLVESGGGLVQAGGSLRLSCAASGRIFPAYVMGWYRQAPGKERELVAGITSASSTYYADSVKGRFTISRDNAKNTVYLQMNSLKPEDTAVYYCAAVGYSVRQRYDYWGQGTQVTVSS	high polyreactivity
QVHLVESGGGLVQAGGSLRLSCAASGRIFRTYAMGWYRPAPGKERELVAAISGSGGRTYYADSVKGRFTISRDNAKNTVYLQMNSLIPEDTAVSYCAKYVSIVRYGSTTNYDYWGQGTQVTVSS	high polyreactivity
QVHLVESGGGLVQAGGSLRLSCAASGRIFRYNAMGWYRQAPVKESELVAAISSIGGRTYYADSVKGRFTISRDNAKNTVYLQMNSLQPEDTAVYNCAALSYYVDGEYDYWGQGTQVTVSS	high polyreactivity
QVHLVESGGGLVQAGGSLRLSCAASGRIFSNNAMGWYRQAPGKERELVATITGSGGRTYYADSVKGRFTISRDNAKNTVYLQMNSLKPEDTAVYYCAAVKRPDYYYWGQGTQVTVSS	high polyreactivity
QVHLVESGGGLVQAGGSLRLSCAASGRIFSWYTMGWYRQAPGKERELVAVITSGGTTKYADSVKGRFTISRDNAKNTVYLQMNSLKPEDTAVYYCNVAGRDYAVRWGSFDYWGQGTQVTVSS	low polyreactivity
QVHLVESGGGLVQAGGSLRLSCAASGRIFVPYVMGWNRQAPGTERELVASISDSDTSTYYADSVKGRFTISRDNAKNTVYVEMISLKPEDTAVYDCNVDYWGQGTHVTVSS	low polyreactivity
QVHLVESGGGLVQAGGSLRLSCAASGRIFYGYAMGWYRQAPWKEREFVAAITWRGGTFYADSVKGRFTISRDNAKNTVYLQMNSLKPEDTAVYYCAARVSSYGRYDYWGQGTQVTVSS	high polyreactivity
QVHLVESGGGLVQAGGSLRLSCAASGRIFYYNAIGWYRQAPGKERELVANITRARGTYYADSVKGPFTISRDNAKNTVYLQMNSLKPEDTAVYYCAKRHPIVDDYKGDYWGQGTQVTVSS	low polyreactivity
QVHLVESGGGLVQAGGSLRLSCAASGRIFYYNTMGWYRQAPGKERELVAAITTNGGSTYYADSVKGRFTISRDNAKNTVYLQMNSLKPEDTAVYYCNRDRYPYYYAYNYWGQGTQVTVSS	low polyreactivity
QVHLVESGGGLVQAGGSLRLSCAASGRIIWNYAMGWYRQAPGKERELVASINRSGGTTYYADSVKGRFTISRDNAKNTVYLQMNSLKPEDTAVYYCNTVYYGNFYSTRYDYWGQGTQVTVSS	high polyreactivity
QVHLVESGGGLVQAGGSLRLSCAASGRILGYYAMVWYRQAPGKERELVAAISRGGRTNYADSVKGRFTISRDNAKNTVYLQMNSLKPEDTAVYYCAKDVAGLFHVGALYYYWGQGTQVTVSS	low polyreactivity
QVHLVESGGGLVQAGGSLRLSCAASGRILNWNAMGWYRQAPGKDREFVAAIRTSGGDSTSYADSVKGRFTISRDNAKNTVYLQMTSLKPEDTAVFDCAKTVWWYYRYPFDYWGQGTQVTVSS	low polyreactivity
QVHLVESGGGLVQAGGSLRLSCAASGRILTSNAMGWYRQAPGKERELVAAISWSGGSTYYADSVKGRFTISRVNAKNTVYLQMNSLKPEDTAVYYCAAPFTTTFDYWGQGTLVTVSS	low polyreactivity
QVHLVESGGGLVQAGGSLRLSCAASGRISYFYAMGWYRQAPGKESELVATITTSAGRTYYADSVKGRFTISRDNAKNTVYLLMNSLKPEDTAVYYCAASRYTYPYNYWGQGTQVTVSS	high polyreactivity
QVHLVESGGGLVQAGGSLRLSCAASGRIYKYNAMGWYRQAPGKERELVAAISSGGSTNYADSVKGRFTISRDNAKNTVYLQMNSLKPEDTAVYYCAADGTRVSSFHYLVWLGYWGQGTQVTVSS	low polyreactivity

Sequence	polyreactivity (PSR sort gate)
QVHLVESGGGLVQAGGSLRLSCAASGRNSLRNGMGWYKQAPGKEWELDPAITSGSSTDYADSVKGRFTISRDNAKNTVDLEMNSLKPEDTAVSYCAKDLLQYGPGAGRYDYWGQGTQVTVSS	low polyreactivity
QVHLVESGGGLVQAGGSLRLSCAASGRTFAPNAMGWYIQAPGKERELVAAISYNSGTTYYADSVKGRFTISRDNAKNTVYLQMNSLKPEDTAVYYCAARRYYKYDWGQGTQVTVSS	high polyreactivity
QVHLVESGGGLVQAGGSLRLSCAASGRTFGYYAMGWYRQAPGKERELVATISGRAGRTYYADSVKGRFTISRDNAKNTVYLQMNSLKPEDTAVYYCATRSLQKYYWIANSYGYWGHGTQVTVSS	high polyreactivity
QVHLVESGGGLVQAGGSLRLSCAASGRTFQYNAMGWYRQSPGTERELVAAISWRGARTYYADSVKGRFTISRDYAKNTVYLQMNSLNPEDTAVYYCAAAPYGYRRYEYWGQGTQVTVSS	high polyreactivity
QVHLVESGGGLVQAGGSLRLSCAASGRTFRQYAMGWNIQAPGKERELVATISSGGSTYYADSVKGRFTISRDNAKNTVYLQMNSLKPEDTSVYYCAAASGTKRLYRGTRGDYWGQGTQVTVSS	low polyreactivity
QVHLVESGGGLVQAGGSLRLSCAASGRTFTGYAMGWYRQAPGKEREFVAAISSGGVRTYYADSVKGRFTISRDNAKNTVYLQMNSLKPEDTAVYYCNARQVYYRGTFRYSYDYWGQGTQVTVSS	high polyreactivity
QVHLVESGGGLVQAGGSLRLSCAASGRTFVRYAMGWYRQAPGKERELVAAISLRGGRTYYADSVKGRFTISRDNAKNTVYLQMNSLKPEDTAVYYCAARSYPTGASYDYWGQGTQVTVSS	high polyreactivity
QVHLVESGGGLVQAGGSLRLSCAASGRTFVYNSMGWYRQAPGKERELVAAISSDGASTYYADSVKGRFTISRDNAKNTVYLQMNSLKPEDTAVYYCAADFSYYSYEHYYWGQGTQVTVSS	low polyreactivity
QVHLVESGGGLVQAGGSLRLSCAASGRTFWIYGMGWYRPATGKERELVAAITRSGGSTNYADSVKGRFTLSRDNAKNNVYLQMNSLKPEVTAVYYGAADTWYPGYYAYDYRGQGTQVTVSS	high polyreactivity
QVHLVESGGGLVQAGGSLRLSCAASGRTFYRYAMGWYRQAPGKERELVAAINTGGSTYYADSVKGRFTISRDNAKTTVYLQMNSLKPEVTAVYYCAAEAASWWGYGYWGQGTKVTVSS	high polyreactivity
QVHLVESGGGLVQAGGSLRLSCAASGSIFAVYAMGWYRQAPGKERELVAAITRSGRTSYADSVKGRFTISRDNAKNTVYLQMNSLKPEDTAVFYCAVRTYYPTFGGFYYWGQGTQVTVSS	high polyreactivity
QVHLVESGGGLVQAGGSLRLSCAASGSIFEAYAMGWSRQAPGKERELVAVISWRGGLTYYPDSVKGRFTISRDNAKNTLYLQMNSLKPDDTAVYYCNKAYWWHQVGLPRNYEYWGQGTQVTVSS	low polyreactivity
QVHLVESGGGLVQAGGSLRLSCAASGSIFFDGNAMGWYRQAPGKERELVAAISVSGGSTYYADSVKGRFTISRDNAKNTVYLQMNSLKPEDTAVYYCAKYPSNSYVPGDYWGQGTQVTVSS	low polyreactivity
QVHLVESGGGLVQAGGSLRLSCAASGSIFFGYAKGWYRQAPGKERELVAGMDTGGSTDYADSVTGRFTISRDNAKNTVYLQMNSLKPEDTAVYYWATYSYGAVTVDYWGQGTQVTVSS	low polyreactivity
QVHLVESGGGLVQAGGSLRLSCAASGSIFFGYTMGWYRQAPGKERELVAAITRRGGSTYYADSVKGRFTISRDNAKNTVYLQMNSLKPVDTAVYYCAAEVRRYVIVPYYYWGQGTQVTVSS	high polyreactivity
QVHLVESGGGLVQAGGSLRLSCAASGSIFGSQNAMGWYRQAPGKERELVAAYYTARGARTYYADSVKGRFTISRDNAKNTVYLQMNSLKPEDTAVYYCAPRRYGRYRYDYWGQGTQVTVSS	low polyreactivity
QVHLVESGGGLVQAGGSLRLSCAASGSIFGSYAMGWYRQAPGKERELVASITRVDSTNYADSVKGRFTISRDNAKNTVYLQMNSLKPEDTAVYYCNAGKTIDYRDGVGYDHWGQGTQVTVSS	low polyreactivity
QVHLVESGGGLVQAGGSLRLSCAASGSIFHKNAMGWYRQAPGKERELVAAITSGGTTYYADSVKGRFTISRDNAKNTVYLLMNSLKPEDTAVYYCNAAKFLYRHGFLSAGDMYYWGQGTQVTVSS	high polyreactivity
QVHLVESGGGLVQAGGSLRLSCAASGSIFKYYAMGWYRQAPGKETELVAAISSGGTTNYADSVKGRFTISRDNAKNTVYFQMNSLKPEDTEVYYCAAYSTYFRRRKWGYDYWGQGTQVTVSS	high polyreactivity
QVHLVESGGGLVQAGGSLRLSCAASGSIFLRYAMGWYRKAPGKERVLFAGITSSGGSTYYADSVQGRFTISRDNAKNTVYLQMNSLKPEDTAVYYCARGLYRIYSPVRYGYWGQGTQVTVSS	high polyreactivity
QVHLVESGGGLVQAGGSLRLSCAASGSIFSYYAMGWYRQAPGKERELVAAISQSGGSTYYSDSVKGRFTISRDNAKNTVYLQMNSLKPEDTAVYYCNSGRGTFKRYTALQYWGQGTQVTVSS	low polyreactivity
